We go through two molecules from patent US20200317768A1 (published 2020).

Assay [1] addresses T1, cynomolgus monkey FcγRIIa1 extracellular domain, C-terminal His-tag (cynomolgus monkey).
T1 construct: also called cyno FcγRIIa1; cynoFcgRIIa1; not shown: His-tag added to C-terminus
T1 chain: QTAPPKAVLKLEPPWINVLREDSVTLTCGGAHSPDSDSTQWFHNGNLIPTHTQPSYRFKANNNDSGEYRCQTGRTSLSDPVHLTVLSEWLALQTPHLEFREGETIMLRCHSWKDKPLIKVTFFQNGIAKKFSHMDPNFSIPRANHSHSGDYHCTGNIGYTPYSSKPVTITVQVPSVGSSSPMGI
Nature of the assay: SPR (BIACORE), antibody captured, FcγR analyte. Here is the method:
(§1) The kinetic analysis of interactions between these antibodies and FcγR was carried out using BIACORE® T200 or BIACORE® 4000 (GE Healthcare). HBS-EP+ (GE Healthcare) was used as the running buffer, and the measurement temperature was set to 25° C. A chip produced by immobilizing Protein A. Protein A/G or mouse anti-human IgG kappa light chain (BD Biosciences) onto a Series S Sensor Chip CM4 or CM5 (GE Healthcare) by the amine-coupling method was used. […] After the measurement, the antibody captured on the chip was washed off by allowing reaction with 10 mM glycine-HCl, pH1.5 and 25 mM NaOH so that the chip was regenerated and used repeatedly. The sensorgrams obtained as measurement results were analyzed by the 1:1 Langmuir binding model using the BIACORE® Evaluation Software to calculate the binding rate constant ka (L/mol/s) and dissociation rate constant kd (l/s), and the dissociation constant KD (mol/L) was calculated from these values. […] Regarding such interactions, KD values were calculated using the following 1:1 binding model described in BIACORE® T100 Software Handbook BR1006-48 Edition AE.

In assay [2] the target is T2, cynomolgus monkey FcγRIIa2 extracellular domain, C-terminal His-tag (cynomolgus monkey).
T2 construct: also called cyno FcγRIIa2; cynoFcgRIIa2; not shown: His-tag added to C-terminus
T2 chain: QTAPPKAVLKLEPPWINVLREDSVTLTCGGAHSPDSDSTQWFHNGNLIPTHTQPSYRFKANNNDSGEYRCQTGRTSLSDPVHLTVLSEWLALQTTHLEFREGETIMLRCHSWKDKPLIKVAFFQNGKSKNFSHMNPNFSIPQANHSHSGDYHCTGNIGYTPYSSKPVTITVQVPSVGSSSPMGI
Nature of the assay: SPR (BIACORE), antibody captured, FcγR analyte. Here is the method: as §1
For orientation: In SPR one partner is held on a chip, and binding of the other changes the refractive index at the surface.

The target in assay [3] is T3, cynomolgus monkey FcγRIIa3 extracellular domain, C-terminal His-tag (cynomolgus monkey).
T3 construct: also called cyno FcγRIIa3; cynoFcgRIIa3; not shown: His-tag added to C-terminus
T3 chain: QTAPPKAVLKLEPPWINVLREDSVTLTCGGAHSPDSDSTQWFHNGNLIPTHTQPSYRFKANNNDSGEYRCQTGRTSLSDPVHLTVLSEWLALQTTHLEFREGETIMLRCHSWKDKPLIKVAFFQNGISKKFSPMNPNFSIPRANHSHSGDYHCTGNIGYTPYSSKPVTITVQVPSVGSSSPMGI
Nature of the assay: SPR (BIACORE), antibody captured, FcγR analyte. Here is the method: as §1

In assay [4] the target is T4, cynomolgus monkey FcγRIIb extracellular domain, C-terminal His-tag (cynomolgus monkey).
T4 construct: also called cyno FcγRIIb; cynoFcγRIIb; not shown: His-tag added to C-terminus
T4 chain: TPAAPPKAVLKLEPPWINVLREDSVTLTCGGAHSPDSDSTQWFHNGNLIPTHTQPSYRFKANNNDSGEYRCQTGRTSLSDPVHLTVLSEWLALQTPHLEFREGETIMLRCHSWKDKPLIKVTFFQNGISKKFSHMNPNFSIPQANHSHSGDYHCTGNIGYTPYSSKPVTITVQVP
Nature of the assay: SPR (BIACORE), antibody captured, FcγR analyte. As for the experimental part: as §1

Assay [5] has as its target T5, cynomolgus monkey FcγRIIIaS extracellular domain, C-terminal His-tag (cynomolgus monkey, UniProt A3RFZ7 21-206 (rhesus entry)).
T5 construct: also called cyno FcγRIIIaS; cynoFcγRIIIaS; not shown: His-tag added to C-terminus
The assay can be described thus: SPR (BIACORE), antibody captured, FcγR analyte. Here is the method: as §1

Assay [6] concerns the target T6, human FcγRIIaH extracellular domain, C-terminal His-tag (human, UniProt P12318 34-217).
T6 construct: also called human FcγRIIa (type H); FcgRIIaH; not shown: His-tag added to C-terminus
T6 sequence: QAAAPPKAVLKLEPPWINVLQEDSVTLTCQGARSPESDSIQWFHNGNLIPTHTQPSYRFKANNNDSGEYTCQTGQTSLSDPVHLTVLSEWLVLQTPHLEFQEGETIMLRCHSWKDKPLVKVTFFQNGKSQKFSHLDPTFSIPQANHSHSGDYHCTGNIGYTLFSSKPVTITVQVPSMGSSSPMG
Nature of the assay: SPR (BIACORE), antibody captured, FcγR analyte. As for the experimental part:
as §1

The target of assay [7] is T7, human FcγRIIaR extracellular domain, C-terminal His-tag (human, UniProt P12318 34-217).
T7 construct: also called human FcγRIIa (type R); FcgRIIaR; not shown: His-tag added to C-terminus
T7 chain: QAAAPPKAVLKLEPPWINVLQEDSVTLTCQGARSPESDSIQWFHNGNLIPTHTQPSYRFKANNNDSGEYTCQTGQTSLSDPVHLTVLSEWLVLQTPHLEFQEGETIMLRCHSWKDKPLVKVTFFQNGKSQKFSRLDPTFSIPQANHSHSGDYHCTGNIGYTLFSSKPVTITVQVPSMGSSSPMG
The assay can be described thus: SPR (BIACORE), antibody captured, FcγR analyte. Here is the method: as §1

In assay [8] the target is T8, human FcγRIIb extracellular domain, C-terminal His-tag (human, UniProt P31994 43-217).
T8 construct: also called humanFcgRIIb; not shown: His-tag added to C-terminus
T8 sequence: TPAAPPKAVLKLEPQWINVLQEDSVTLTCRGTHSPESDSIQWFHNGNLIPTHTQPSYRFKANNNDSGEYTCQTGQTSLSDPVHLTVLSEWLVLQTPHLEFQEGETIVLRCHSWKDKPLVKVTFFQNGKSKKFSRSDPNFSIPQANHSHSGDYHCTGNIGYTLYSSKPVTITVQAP
The assay can be described thus: SPR (BIACORE), antibody captured, FcγR analyte. Here is the method: as §1

Assay [9] has as its target T9, human FcγRIIIaV extracellular domain, C-terminal His-tag (human, UniProt P08637 17-208).
T9 construct: also called FcgRIIIaV; not shown: His-tag added to C-terminus
Nature of the assay: SPR (BIACORE), antibody captured, FcγR analyte. Here is the method:
as §1

In assay [10] the target is T1, cynomolgus monkey FcγRIIa1 …. The assay can be described thus: SPR (BIACORE); KD of parent SG1 / KD of variant.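 Also: relative to parent M103205H795-SG1 carrying the SG1 human heavy chain constant region.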 Here is the method:
as §1

For assay [11], the target named is T2, cynomolgus monkey FcγRIIa2 …. Nature of the assay: SPR (BIACORE); KD of parent SG1 / KD of variant.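 Also: relative to parent M103205H795-SG1 carrying the SG1 human heavy chain constant region.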 As for the experimental part: as §1
The target in assay [12] is T3, cynomolgus monkey FcγRIIa3 …. Nature of the assay: SPR (BIACORE); KD of parent SG1 / KD of variant.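 Also: relative to parent M103205H795-SG1 carrying the SG1 human heavy chain constant region.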 As for the experimental part:
as §1

The target of assay [13] is T4, cynomolgus monkey FcγRIIb extracellular …. The assay can be described thus: SPR (BIACORE); KD of parent SG1 / KD of variant.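 Also: relative to parent M103205H795-SG1 carrying the SG1 human heavy chain constant region.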 Here is the method:
as §1

In assay [14] the target is T5, cynomolgus monkey FcγRIIIaS …. The assay can be described thus: SPR (BIACORE); KD of parent SG1 / KD of variant. As for the experimental part: as §1
Assay [15] addresses T6, human FcγRIIaH extracellular domain, …. Nature of the assay: SPR (BIACORE); KD of parent SG1 / KD of variant. As for the experimental part:
as §1

In assay [16] the target is T7, human FcγRIIaR extracellular domain, …. Nature of the assay: SPR (BIACORE); KD of parent SG1 / KD of variant. As for the experimental part: as §1
For assay [17], the target named is T8, human FcγRIIb extracellular domain, …. Nature of the assay: SPR (BIACORE); KD of parent SG1 / KD of variant. Here is the method: as §1
Assay [18] concerns the target T9, human FcγRIIIaV extracellular domain, …. The assay can be described thus: SPR (BIACORE); KD of parent SG1 / KD of variant. As for the experimental part: as §1

T5 sequence (A3RFZ7 21-206): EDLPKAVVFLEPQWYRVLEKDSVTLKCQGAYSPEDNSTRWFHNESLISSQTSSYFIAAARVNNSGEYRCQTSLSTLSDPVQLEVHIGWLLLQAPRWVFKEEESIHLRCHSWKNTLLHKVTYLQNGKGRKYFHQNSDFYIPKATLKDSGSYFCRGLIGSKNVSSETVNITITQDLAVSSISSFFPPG
T9 sequence (P08637 17-208 F176V): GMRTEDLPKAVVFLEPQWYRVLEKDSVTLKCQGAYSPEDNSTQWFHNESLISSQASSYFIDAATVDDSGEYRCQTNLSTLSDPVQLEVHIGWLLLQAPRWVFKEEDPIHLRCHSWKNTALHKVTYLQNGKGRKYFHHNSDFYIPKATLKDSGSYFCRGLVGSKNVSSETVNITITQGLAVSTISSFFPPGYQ

B1: M103205H795-SG1029 / M103202L889-SK1 (antibody, human IgG1, kappa)
heavy: QVTLKESGPVLVKPTETLTLTCTVSGIDLSHDDISWVRQAPGKGLEWVGIISYAGSTYYASWAKGRLTISKDTSKNQVVLTMTNMDPVDTATYYCARGVPAYSHGGDLWGQGTLVTVSSASTKGPSVFPLAPSSKSTSGGTAALGCLVKDYFPEPVTVSWNSGALTSGVHTFPAVLQSSGLYSLSSVVTVPSSSLGTQTYICNVNHKPSNTKVDKKVEPKSCDKTHTCPPCPAPELLNGPSVFLFPPKPKDTLMISRTPEVTCVVVDVSDEDPEVKFNWYVDGVEVHNAKTKPREELYNSTYRVVSVLTVLHRDWLNGKEYKCKVSNKALPKPIEKTISKAKGQPREPQVYTLPPSREEMTKNQVSLTCLVKGFYPSDIAVEWESNGQPENNYKTTPPVLDSDGSFFLYSKLTVKKSRWQQGNVFSCSVMHEALHAHYTQKSLSLSP
light: DIVMTQSPATLSLSPGERATLSCTSSQSVYHANWLSWFQQKPGQPPKLLIYWASTLAYGVPSRFSGSGSGTDFTLTISSLQPEDAATYYCAGGYGGGRYAFGQGTKVEIKRTVAAPSVFIFPPSDEQLKSGTASVVCLLNNFYPREAKVQWKVDNALQSGNSQESVTEQDSKDSTYSLSSTLTLSKADYEKHKVYACEVTHQGLSSPVTKSFNRGEC
notes: CH with G236N/H268D/Q295L/Q311R/A330K/D413K/N434A against SG1 (EU numbering); also called MS1032LO06-SG1029
Regarding B1, the Kd in [1] is 1400 nM; in assay [2], 1500 nM; in [3], 3100 nM; in [4], 400 nM; in assay [5], 5300 nM; in [6] it was 790 nM. Further, the Kd in [7] was 1300 nM; in assay [8], 900 nM; in [9], 20000 nM. The “KD fold (SG1 = 1)” value came to 3.5 fold in [10]; 3.1 fold in [11]; 2.8 fold in assay [12]; 4.9 fold in assay [13]; 0.05 fold in assay [14]; 1.1 fold in [15]. The “KD fold (SG1 = 1)” value in [16] was 0.8 fold; in assay [17], 5.3 fold; in [18], 0.03 fold.

B2: M103205H795-SG1031 / M103202L889-SK1 (antibody, human IgG1, kappa)
heavy: QVTLKESGPVLVKPTETLTLTCTVSGIDLSHDDISWVRQAPGKGLEWVGIISYAGSTYYASWAKGRLTISKDTSKNQVVLTMTNMDPVDTATYYCARGVPAYSHGGDLWGQGTLVTVSSASTKGPSVFPLAPSSKSTSGGTAALGCLVKDYFPEPVTVSWNSGALTSGVHTFPAVLQSSGLYSLSSVVTVPSSSLGTQTYICNVNHKPSNTKVDKKVEPKSCDKTHTCPPCPAPELLNGPSVFLFPPKPKDTLMISRTPEVTCVVVDVSDEDPEVKFNWYVDGVEVHNAKTKPREEQYNSTYRVVSVLTVLHRDWLNGKEYKCKVSNKALPKPIEKTISKAKGQPREPQVYTLPPSREEMTKNQVSLTCLVKGFYPSDIAVEWESNGQPENNYKTTPPVLDSDGSFFLYSKLTVKKSRWQQGNVFSCSVMHEALHAHYTQKSLSLSP
light: DIVMTQSPATLSLSPGERATLSCTSSQSVYHANWLSWFQQKPGQPPKLLIYWASTLAYGVPSRFSGSGSGTDFTLTISSLQPEDAATYYCAGGYGGGRYAFGQGTKVEIKRTVAAPSVFIFPPSDEQLKSGTASVVCLLNNFYPREAKVQWKVDNALQSGNSQESVTEQDSKDSTYSLSSTLTLSKADYEKHKVYACEVTHQGLSSPVTKSFNRGEC
notes: CH with G236N/H268D/Q311R/A330K/D413K/N434A against SG1 (EU numbering); also called MS1032LO06-SG1031
Regarding B2, the Kd in assay [1] stood at 1800 nM; in assay [2], 1500 nM; in assay [3], 2800 nM; in [4], 500 nM; in assay [5] it was 4400 nM; in assay [6], 1800 nM. Moreover, the figures for the Kd in assay [7], in assay [8] and in [9] were 800 nM, 1200 nM and 15000 nM, respectively. For the same molecule, the “KD fold (SG1 = 1)” value worked out at 2.6 fold in assay [10]; 3.1 fold in [11]; 3.1 fold in assay [12]; 3.9 fold in [13]; 0.06 fold in assay [14]; 0.7 fold in assay [15]. Besides, the “KD fold (SG1 = 1)” value was determined as 1.3 fold in assay [16], 3.8 fold in assay [17] and 0.04 fold in assay [18].

Usually Kd stands for the equilibrium constant for the complex coming apart.
